# Laboratory results taken from patent US7432342B2, “Kinase anchor protein muteins, peptides thereof and related documents” (Sequenom, Inc., priority 2002, dated 2008).
# Target: T1, RIα-D/D-GFP (Bos taurus, UniProt P00514)
# T1 construct: The dimerization/docking (D/D) domain of RIα and full-length RIIα were each fused with green fluorescent protein (GFP); expressed in transfected cells; host or cells: 10T(1/2) cells
# Assay: Co-localization of PKA regulatory domain with mitochondria-targeted AKB domain in 10T(1/2) cells (Example 3)
# Assay type: cell-based
# Settings: C-terminal 156 residues of D-AKAP2 fused to D-AKAP1 mitochondrial anchoring domain
# Excerpt: The 30 amino acid mitochondrial anchoring domain of D-AKAP1 (Chen et al. (1997) J. Biol. Chem., 272:15247-57; and Huang et al. (1997) J. Biol. Chem., 272:8057-8064) was fused to the C-terminal 156 residues of mouse (amino acids 217-372 of SEQ ID NO:55) and human (amino acids 507-662 of SEQ ID NO:64) D-AKAP2, respectively, followed by a Flag-tag and subcloned into pcDNA4 (Invitrogen, Carlsbad, Calif.). The dimerization/docking (D/D) domain of RIα and full-length RIIα were each fused with green fluorescent protein (GFP) and cloned into pEGFPN1 (Clontech, Palo Alto, Calif.). […] The AKB domain was detected by immuno-staining with monoclonal antibodies against the Flag-tag (Kodak, Rochester, N.Y.) followed by rhodamine-conjugated secondary antibody (Jackson Lab, Bar Harbor, Me.). […]
# In this assay, the AKB domain within the C-terminal 156 residues of D-AKAP2 from mouse (Val) and human (Ile) was fused to the mitochondrial anchoring domain from D-AKAP1 and tethered to the outer mitochondrial membrane (Chen et al. (1997) J. Biol. Chem., 272:15247-15257; and Huang et al. (1997) J. Biol. Chem., 272:8057-8064). The binding of the AKB domain with the PKA regulatory domains was detected as the co-transfected PKA regulatory domains co-localized to the mitochondria. […]
# T1 sequence (P00514 2-135 limits assumed): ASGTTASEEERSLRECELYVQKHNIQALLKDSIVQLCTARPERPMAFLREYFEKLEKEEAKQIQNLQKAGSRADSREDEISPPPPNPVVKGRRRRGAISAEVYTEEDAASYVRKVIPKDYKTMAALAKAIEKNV
molecule,measurement,setting,value
"Ile (646) variant: D-AKAP2 AKB domain with Ile at amino acid 646 (SEQ ID NO:64), tested as GST fusion or mitochondria-targeted fusion construct (protein, listed as Homo sapiens, GST or mitochondria-targeting fusion) MRGAGPSPRQSPRTLRPDPGPAMSFFRRKVKGKEQEKTSDVKSIKASISVHSPQKSTKNHALLEAAGPSHVAINAISANMDSFSSSRTATLKKQPSHMEAAHFGDLGRSCLDYQTQETKSSLSKTLEQVLHDTIVLPYFIQFMELRRMEHLVKFWLEAESFHSTTWSRIRAHSLNTMKQSSLAEPVSPSKKHETTASFLTDSLDKRLEDSGSAQLFMTHSEGIDLNNRTNSTQNHLLLSQECDSAHSLRLEMARAGTHQVSMETQESSSTLTVASRNSPASPLKELSGKLMKSIEQDAVNTFTKYISPDAAKPIPITEAMRNDIIARICGEDGQVDPNCFVLAQSIVFSAMEQEHFSEFLRSHHFCKYQIEVLTSGTVYLADILFCESALFYFSEYMEKEDAVNILQFWLAADNFQSQLAAKKGQYDGQEAQNDAMILYDKYFSLQATHPLGFDDVVRLEIESNICREGGPLPNCFTTPLRQAWTTMEKVFLPGFLSSNLYYKYLNDLIHSVRGDEFLGGNVSPTAPGSVGPPDESHPGSSDSSASQSSVKKASIKILKNFDEAIIVDAASLDPESLYQRTYAGKMTFGRVSDLGQFIRESEPEPDVRKSKGSMFSQAMKKWVQGNTDEAQEELAWKIAKMIVSDIMQQAQYDQPLEKSTKL",targeting of RIα to the mitochondria,,decrease in mitochondrial localization
same,targeting of RIα to the mitochondria,listed as lie variant,unable to target RIα
